Measured values from US20260217845A1 (ODYSSEY THERAPEUTICS, published 2026).
Values belong to the binder of their own block, whether it stands above or below them.

Assays:
[1] = molecular target: T1, mouse TNFR2 (extracellular domain) (mouse, UniProt P25119 23-258); assay: SPR (Carterra LSA), V-body coupled to HC200M chip, TNFR2 extracellular domain in solution
T1 construct: also called mTNFR2
T1 sequence: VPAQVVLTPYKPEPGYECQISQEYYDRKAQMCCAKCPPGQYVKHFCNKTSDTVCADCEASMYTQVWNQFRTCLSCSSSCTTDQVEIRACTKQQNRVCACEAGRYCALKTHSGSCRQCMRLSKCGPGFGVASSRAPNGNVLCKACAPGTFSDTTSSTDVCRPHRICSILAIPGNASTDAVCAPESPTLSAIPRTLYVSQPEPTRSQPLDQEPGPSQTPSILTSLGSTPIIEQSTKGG
Description: (§1) Binding affinities of the V-bodies to their respective target was determined by surface plasmon resonance (SPR) using a Caterra LSA instrument. Affinity purified V-bodies were covalently crosslinked onto an LSA HC200M chip using EDC/Sulfo NHS. The interaction with human, cynomolgus, and mouse TNFR2 (extracellular domain) (V-body coupling concentration: human, […]; cynomolgus/mouse, 4 μM) was measured under physiological conditions (Running Buffer: HBST-50 mM HEPES pH 7.4, 150 mM NaCl, 0.1% (w/v) BSA, 0.05% (v/v) Tween20, 25° C.) using eight different antigen concentrations (3-fold serial dilutions, start at 200 nM). Resulting sensorgrams (FIGS. 9A-9F) were analyzed and equilibrium-binding affinities (KDs) were calculated using Carterra's data analysis software.

[2] = molecular target: T2, human TNFR2 (extracellular domain) (human, UniProt P20333 23-257); assay: SPR (Carterra LSA), V-body coupled to HC200M chip, TNFR2 extracellular domain in solution, 8 concentrations from 200 nM
T2 construct: also called hTNFR2; human tumor necrosis factor receptor 2
T2 sequence: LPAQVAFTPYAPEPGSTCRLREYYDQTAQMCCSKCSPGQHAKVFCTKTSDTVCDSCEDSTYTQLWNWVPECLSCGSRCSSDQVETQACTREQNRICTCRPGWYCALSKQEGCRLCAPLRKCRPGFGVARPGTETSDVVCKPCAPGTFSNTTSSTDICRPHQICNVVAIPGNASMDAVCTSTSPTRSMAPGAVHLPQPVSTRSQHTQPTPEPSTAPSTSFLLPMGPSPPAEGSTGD
Description: as §1

- binding result [2]: binds
B1: ODY-31D6 (VHH)
VHH: EVQLVESGGGLVQAGGSLRLSCAASGSIVSTNGMGWHRQVPGKGRELVAGIRSDGFTNYADSVKGRFTISSDNVKNTVYLQMNSLKAEDSGVYFCYYQALSSPNYGQTFWGQGTQVTVSS
- binding result [1]: no binding (tested: 200 nM (highest antigen concentration))

- binding result [2]: binds
B2: ODY-37C7 (VHH)
VHH: EVQLVESGGGLVQPGGSLRLSCAASGFTFDDIAMTWVRQAPGKGLEWVSSIYSYGPNTYYADSVKGRFTISTDSAKNTLYLQMNSLKPEDTAVYYCAADSDLSTVVVGPHDYWGQGTQVTVSS
- binding result [1]: no binding (tested: 200 nM (highest antigen concentration))

- binding result [2]: binds
B3: ODY-31G3 (VHH)
VHH: EVQLVESGGGLVQAGGSLRVSCAASGSIFRADAMGWHRQVPGKPREFVAGIRSDGFTNYAEAVKGRFTISWDTVKNTVYLQMNSLKPEDTAVYTCYYQSLSSPNYGQVFWGQGTQVTVSS
- binding result [1]: no binding (tested: 200 nM (highest antigen concentration))

- binding result [2]: binds
B4: ODY-33D4 (VHH)
VHH: EVQLVESGGGLVQAGGSLRLSCAASGRTFSDYGMGWFRQAPGKDSEFVAAINWSNGRTNYADSVKGRFTISRDNAKNTGYLEMNSLKVEDTAVYYCAATPSGKAYSYWGQGTQVTVSS
- binding result [1]: no binding (tested: 200 nM (highest antigen concentration))

- binding result [2]: binds
B5: ODY-35A10 (VHH)
VHH: EVQLVESGGGLVEAGGSLRLSCAASGRTFGSYTMGWFRQAPGREQEFLASIRRTGGSTSYADSVKGRFTISRDNAKKAVYLQMNSLKPEDTAVYYCAAAPTGRAFTYWGQGTQVTVSS
- binding result [1]: no binding (tested: 200 nM (highest antigen concentration))
